Test results taken from the Human Domainome abundance scans (Beltran et al. 2025).

B1: RAS guanyl-releasing protein 1, residues 539 to 593; numbered along this chain, O95267 (parent)
chain: GFPHNFQETTYLKPTFCDNCAGFLWGVIKQGYRCKDCGMNCHKQCKDLVVFECKK

Variants of: B1
Experiment: abundance fitness (aPCA) (normalised: wild type 0, dead -1); higher = more abundant; growth selection in yeast, the domain comes from the species named
Details: Homo sapiens

Abundance fitness, by site and new letter:
C17: M -0.578, H -0.784, R -0.851, E -0.826, W -1.27, P -1.13, D -0.986, V -0.878, A -1.09, Q -0.755, S -0.948, L -1.26, I -0.869, T -0.821, G -0.99, F -1.14
H4: Q -0.804, E -0.628, D -0.595, G -0.847, S -0.92, M -0.335, N -0.708, K -0.243, V -0.947, P -0.915, W -1.04, A -0.878, Y -0.716, L -1.07
P14: V -0.384, K -0.672, C -0.235, T -0.767, D -0.38, R -0.739, H -0.687, E -0.886, Y -0.397, A -0.253, L -0.296, G -0.449, F -0.364, Q -1, N -0.931, I -0.647, W -0.108
Y11: D -0.832, F 0.227, L -0.031, W -0.17, K -0.036, P -0.742, V -0.25, A -0.267, T -0.318, C -0.151, I -0.301, R -0.214, N -0.225, S 0.028, Q -0.458, E -0.256, H 0
F6: K -0.647, Y -0.093, N -0.29, H -0.319, C -0.132, I -0.269, R -0.574, Q -0.309, D -0.788, V -0.06, W -0.667, G -0.627, L -0.138, P -0.477, S -0.252, M -0.01, A -0.267, T -0.436, E -0.551
A21: Q -0.311, R 0.053, I 0.04, T 0.043, G -0.084, P -0.116, M -0.162, F -0.074, H -0.082, W -0.222, E -0.041, V -0.071, K 0.019, Y 0.13, C -0.009
C20: H -0.695, E -0.931, T -1.05, W -0.827, A -1.01, D -0.541, S -1.24, V -1.13, L -0.974, R -0.74, M -1.05, Q -1.01, G -1.12, N -1.29
T9: Q -0.056, H -0.021, G -0.273, N -0.051, P -0.768, F -0.216, M 0.034, R -0.068, C -0.035, S 0.028, W -0.136, L -0.184, Y -0.013, E -0.376, K -0.473, D -0.131, I -0.203
K13: A -0.223, S -0.116, F -0.167, P -0.507, L -0.028, E -0.565, T -0.105, I -0.257, C -0.153, H 0.015, V -0.106, M 0.04, W -0.131, G -0.333, Q -0.247, D -0.603, N -0.336, R -0.231
D18: C -0.253, T 0.205, Y -0.315, W 0.123, G -0.294, Q -0.001, R -0.059, A -0.016, S 0.028, I -0.142, F -0.063, M -0.079, V -0.132, N -0.026, P -0.732, L -0.013, H -0.383, K -0.017, E -0.087
N19: E 0.11, W 0.082, D -0.101, A 0.065, I -0.163, L -0.018, C -0.061, F 0.068, Y -0.142, R -0.036, H -0.02, M 0.135, G 0.134, T -0.043, V -0.02, S 0.05, K -0.052, Q -0.29
E8: D -0.452, F -0.096, V 0.039, S -0.191, M 0.197, N -0.152, T -0.274, H -0.765, C -0.107, Q 0.086, R -0.068, P -0.303, W -0.174, I -0.063, Y -0.105, G 0.007, A 0.039
L12: P -0.149, I -0.63, M 0.319, F -0.076, E -0.19, G -0.038, W -0.298, D -0.424, S -0.123, C -0.183, V -0.39, N -0.768, T -0.25, Y -0.145, R -0.178, Q -0.337
T15: M -0.146, L -0.236, G -0.607, Q -0.426, F -0.434, W -0.444, N -0.336, C -0.327, R -0.29, I -0.162, D -0.622, K -0.391, V -0.425, H -0.185, A 0.105, E -0.401, P -0.476, S -0.181
T10: K -0.456, E -0.925, H -0.364, M -0.682, F -0.045, W -0.073, R -0.494, I -0.576, A -0.408, N -0.311, P -0.605, S -0.092, Q -0.357, L -0.426, G -0.208, V -0.95, Y -0.291
F16: E -0.408, H -0.148, W -0.376, C 0.038, N -0.175, A -0.085, T -0.33, K -0.205, Y 0.024, L -0.487, D -0.371, Q -0.243, P -0.334, V -0.385, G -0.333, S -0.285
Q7: G -0.116, H -0.096, A -0.027, K -0.484, I -0.217, C -0.366, R -0.123, Y -0.151, E -0.073, V -0.197, S -0.127, P -0.961, D -0.204, N 0.016, L -0.149, T -0.236, M 0.028
G22: E -0.164, K -0.278, V -0.482, N -0.298, S -0.066, H -0.078, P -0.595, M 0.105, I -0.154, D -0.189, Q -0.146, C 0.147, F -0.386, R -0.082
P3: N 0.227, D 0.677, R -0.015, Y 0.394, I 0.209, E 0.357, F 0.483, T 0.06, M 0.131, K -0.171, L 0.007, S 0.099, G 0.116, V 0.064, Q 0.14, H 0.17
N5: L -0.026, C -0.23, W -0.14, D -0.104, P -0.403, I -0.039, Q -0.051, E -0.098, A -0.141, K -0.157, G -0.075, T -0.026, M -0.018, R -0.169, Y -0.459, S -0.066, V -0.218, H 0.001, F -0.226
